IntAct's records for PubMed 14732713

B1: Rho-related GTP-binding protein RhoN (Homo sapiens), P52198 (parent)
chain: MEGQSGRCKIVVVGDAECGKTALLQVFAKDAYPGSYVPTVFENYTASFEIDKRRIELNMWDTSGSSYYDNVRPLAYPDSDAVLICFDISRPETLDSVLKKWQGETQEFCPNAKVVLVGCKLDMRTDLATLRELSKQRLIPVTHEQGTVLAKQVGAVSYVECSSRSSERSVRDVFHVATVASLGRGHRQLRRTDSRRGMQRSAQLSGRPDRGNEGEIHKDRAKSCNLM
partner: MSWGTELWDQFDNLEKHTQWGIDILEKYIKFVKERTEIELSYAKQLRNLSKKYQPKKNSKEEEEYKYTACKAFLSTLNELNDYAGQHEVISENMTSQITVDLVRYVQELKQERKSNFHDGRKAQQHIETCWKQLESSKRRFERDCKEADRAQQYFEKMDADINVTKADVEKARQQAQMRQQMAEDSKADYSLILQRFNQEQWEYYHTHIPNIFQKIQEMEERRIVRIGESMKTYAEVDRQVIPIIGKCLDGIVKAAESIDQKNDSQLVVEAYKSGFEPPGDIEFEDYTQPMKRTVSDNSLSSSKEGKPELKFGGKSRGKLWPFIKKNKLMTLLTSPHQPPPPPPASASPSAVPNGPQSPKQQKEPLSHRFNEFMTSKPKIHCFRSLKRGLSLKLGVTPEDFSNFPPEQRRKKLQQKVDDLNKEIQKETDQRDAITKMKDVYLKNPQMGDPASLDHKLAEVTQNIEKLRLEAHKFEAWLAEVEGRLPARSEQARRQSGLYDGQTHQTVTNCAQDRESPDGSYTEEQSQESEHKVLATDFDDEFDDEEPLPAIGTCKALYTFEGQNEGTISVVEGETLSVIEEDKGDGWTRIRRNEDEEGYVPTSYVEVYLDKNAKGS

Variants of: B1
Details: with fnbp1_rat Fnbp1, Q8R511

effect of a mutation on the interaction | Variant
increasing interaction | MEGQSGRCKIVVVGDVECGKTALLQVFAKDAYPGSYVPTVFENYTASFEIDKRRIELNMWDTSGSSYYDNVRPLAYPDSDAVLICFDISRPETLDSVLKKWQGETQEFCPNAKVVLVGCKLDMRTDLATLRELSKQRLIPVTHEQGTVLAKQVGAVSYVECSSRSSERSVRDVFHVATVASLGRGHRQLRRTDSRRGMQRSAQLSGRPDRGNEGEIHKDRAKSCNLM [A16V]
